B1: p104: 1.2 kb rat GAPDH promoter fragment amplified from the EcoRV genome library, SEQ ID NO: 1 (nucleic acid, listed as Rattus norvegicus)
DNA: ACTATAGGGCACGCGTGGTCGATGGCTTGGGTTGGTATCTACGACTAAACAAGAGAGAGAATGAGATTAATCTCCGCATAATAGTGTGTATCGGCTGAACATACACAGACACACACAGACACACACATACACACAGACACAGAAACATACGCTTAGCACACACAGAAGCACACATACACAGACAGAAACTCACATACACAGAGACCCACAGATATAGACACACAGAGACACAGATGCACACACAGACCTACTTACACACTCATAGACATAGATACACACACATAGACACACACTGACATATCAACACACCTACAGACACACACACCACACATACGCACACACACATACATGAACACACACATACACACGCACACACATACACACACATGGAAACACATGTTTTATGAAGATCTAGGAATTACCCCAATCACAGTAGAATGGATGCCTGTGTTGGGACCCAGGAGGGACAGGAAATAGAAATGGGCTAGGGGGCTGGAGAGATGGCTCAGAGGTTAAGAGCACTGTCTGCTCTTCCAGAGGTCCGGAGTTCAATTCCCAGAAACCACATGGTGGCTCACAACCATCTATAATCAGGTCTGGTGCCCTCTTCTGGCCTGCAGGCATACATGCAAGCAGAAAGCTGTATGATGTATACATAATAAATAAATAAATTTGAAAAAAAAGAAATGGGCTTAGGGGTGATGGGAAGAGAAGGACTCTGAAGGTCTGTAGACCGCTCATAAACTGGGGCAGACGTTGCTCCTGCTTGAGCACCTGACTTCCCAGTCCATTGCCACCATGGTCTTTGTGCCACCATGGCCAGTCCAAGGCCATCCTTAAACAGGCTGCAAAAAGTTTTAACTAGGACCATTAGATTGTCTCTTAAAACTATGAAAGGTTTTACTTTATTTCTCTCTCTCTCTCTCTCTCTCTCTCTCTCTCATTTTAAAAATATTTTTTCGGCTCTCTGCTCCTCCCTGTTCTAGAGACAGCCGCATCTTCTTGTGCAGTGCCAGCCTCGTCTCATAGACAAGATGGTGAAGGTCGGTGTGAACGGATTTGGCCGTATCGGACGCCTGGTTACCAGGGCTGCCTTCTCTTGTGACAAAGTGGACACTGTTGCC
modifications: CDS (1035)..(1124)

Key:
CGCs = assay: Probability of survival of CGCs treated with AraC; assay type: cell-based, rat
Protocol: (§1) CGCs were prepared according to the previous report (J. Neurochem., 66,928-935 (1996)). 16 hours after plating, the following were mixed and added to the non-serum cultures. In addition, it mixed beforehand and added in the culture so that the ratio of A and B might be set to 5:1, it might serve at a final concentration of 2 micro g/mL, C might be set to 1 micro L/micro g DNA and D might be set to 6 micro L/micro g DNA.
(§2) The cells were washed 20 hours after plating and the culture was continued for further 4 hours. […]
The probability of survival of CGCs treated with AraC (500 micro M) was 68% for 14 hours and 44% for 24 hours.

[1] = system: rat cerebellum origin granule cells (CGCs); assay: Reporter assay: luciferase activity of CGCs transfected with promoter-pGL3-enhanser vector, after AraC addition; assay type: cell-based; details: for luciferase activity: vector without promoter set to 1.0
Protocol: The plasmid which inserted promoter sequence (p104-pCR-Script Amp SK (+) and p302-pCR-Script Amp SK (+)) were cleaved at BsmBI site which exists just upstream of translation starting site of GAPDH protein and was created blunt-ends. The fragment was cleaved at the MluI site of 5′-end, sequence including promoter sequence was excised.
The pGL3-enhanser vector (Promega) was opened the MluI-SmaI site, and each promoter sequence excised here was inserted.
Reporter assay was performed with each vector as follows. Reporter assay used the primary culture cell of rat cerebellum origin granule cells (CGCs).
as §1
A) p104-pGL3-enhanser vector or p302-pGL3-enhanser vector both vector contains a firefly luciferase gene on the downstream of the promoter.
B) pRL-SV40 vector (it includes Renilla luciferase gene as an internal standard enzyme on the downstream of SV40 promoter currently activated constantly),
as §2

Molecule | probability of survival of CGCs (CGCs; AraC 10 micro M, 14 or 24-hours culture) | probability of survival of CGCs (CGCs; AraC 500 micro M, 14 hours) [%] | probability of survival of CGCs (CGCs; AraC 500 micro M, 24 hours) [%] | increase of luciferase activity ([1]; 24 hours after AraC addition, CGCs transformed by p104-pGL3-enhanser vector) [times] | promoter activation ([1]; AraC 10 micro M (Table 2), result in words) | luciferase activity ([1]; Table 1, AraC 500 micro M, culture time after addition 14 hours) | luciferase activity ([1]; Table 1, AraC 500 micro M, culture time after addition 24 hours) | luciferase activity ([1]; Table 2, AraC 10 micro M, culture time after addition 14 hours) | luciferase activity ([1]; Table 2, AraC 10 micro M, culture time after addition 24 hours)
Nc1ccn([C@@H]2O[C@H](CO)[C@@H](O)[C@@H]2O)c(=O)n1 [AraC, cytosine arabinoside] | more than 90% | 68 | 44 |  |  |  |  |  | 
B1 |  |  |  | 1.7 | neither of the two promoters (p104 and p302) showed significant activation | 1.7 | 2.4 | 1.2 | 1.3
